# Reference: patent US20150259422A1 (UNIVERSITY OF NORTH CAROLINA AT CHAPEL HILL, published 2015)
# Numbering of substitutions follows the chain as printed.
# B1: VH3/Vκ2 Composite Human Antibody variant of HLMC (antibody, human IgG1, kappa, V domains shown)
# VH: QAQLVQSGAEVKKPGASVKVSCKASGYLFSNSWMNWVKQRRGAGLEWIGRIFPGDGDTNYNGKFKGRATITADKSTSTAYMELSSLRSEDTAVYFCARWGLTRDRRLYLDYWGQGTTVTVSS
# VL: DIVMTQSPDSLAVSLGERATINCKSSQSLLYSSNQKNYLAWYQQKPGQAPRLLIYWASTRESGVPDRFTGSGSGTDFTLTISSLQAEDVAVYYCKQYYTYPLTFGQGTKLEIKR
# notes: also called VH3/Vk2
# B2: VH2/Vκ2 Composite Human Antibody variant of HLMC (antibody, human IgG1, kappa, V domains shown)
# VH: B1 VH with A9P, R41P
# VL: B1 VL
# notes: also called VH2/Vk2
# B3: VH3/Vκ3 Composite Human Antibody variant of HLMC (antibody, human IgG1, kappa, V domains shown)
# VH: B1 VH
# VL: B1 VL with T69S
# notes: also called VH3/Vk3
# B4: VH1/Vκ3 Composite Human Antibody variant of HLMC (antibody, human IgG1, kappa, V domains shown)
# VH: B1 VH with A9P, V11L, R41P, T91S
# VL: B1 VL with T69S
# notes: also called VH1/Vk3
# B5: VH4/Vκ3 Composite Human Antibody variant of HLMC (antibody, human IgG1, kappa, V domains shown)
# VH: B1 VH with A68V
# VL: B1 VL with T69S
# notes: also called VH4/Vk3
# B6: VH2/Vκ1 Composite Human Antibody variant of HLMC (antibody, human IgG1, kappa, V domains shown)
# VH: B1 VH with A9P, R41P
# VL: B1 VL with A12V, P46S
# notes: also called VH2/Vk1
# B7: VH5/Vκ3 Composite Human Antibody variant of HLMC (antibody, human IgG1, kappa, V domains shown)
# VH: B1 VH with A68V, F95Y
# VL: B1 VL with T69S
# notes: also called VH5/Vk3
# B8: VH2/Vκ3 Composite Human Antibody variant of HLMC (antibody, human IgG1, kappa, V domains shown)
# VH: B1 VH with A9P, R41P
# VL: B1 VL with T69S
# notes: also called VH2/Vk3
# B9: VH5/Vκ1 Composite Human Antibody variant of HLMC (antibody, human IgG1, kappa, V domains shown)
# VH: B1 VH with A68V, F95Y
# VL: B1 VL with A12V, P46S
# notes: also called VH5/Vk1
# B10: VH1/Vκ2 Composite Human Antibody variant of HLMC (antibody, human IgG1, kappa, V domains shown)
# VH: B1 VH with A9P, V11L, R41P, T91S
# VL: B1 VL
# notes: also called VH1/Vk2
# B11: VH4/Vκ1 Composite Human Antibody variant of HLMC (antibody, human IgG1, kappa, V domains shown)
# VH: B1 VH with A68V
# VL: B1 VL with A12V, P46S
# notes: also called Vh4/Vk1; VH4/Vk1
# B12: VH3/Vκ1 Composite Human Antibody variant of HLMC (antibody, human IgG1, kappa, V domains shown)
# VH: B1 VH
# VL: B1 VL with A12V, P46S
# notes: also called VH3/Vk1
# Target: T1, alphaVbeta3 integrin, native human, on rhabdomyosarcoma (RD) cells and on human umbilical vein endothelial … (human, UniProt P06756 31-1048; P05106 27-788)
# T1 construct: whole, on cells; also called αVβ3; native human β3
# Test: flow cytometry on RD cells expressing alphaVbeta3, PE anti-human IgG; EC50 = concentration where 50% of cells gated in R2
# Procedure: (§1) The binding of NS0-derived HLMC Composite Human Antibody™ variants to rhabdomyosarcoma (RD) cells expressing alphaVbeta3 integrin was assessed in a flow cytometry binding assay. Briefly, a subconfluent monolayer of RD cells was prepared and incubated in serum free medium for 24 hours prior to harvest. […] Cells were resuspended into a suitable volume of cold FACS buffer (1% FBS/0.01% sodium azide/PBS) to yield a final cell density of 4×10⁶ cells/ml.
# (§2) The plates were incubated at 4° C. for 1 hour. Cells were washed with FACS buffer, resuspended in 100 μl of secondary antibody (Sigma Cat. No. P8047, goat anti-human IgG (γ chain specific; PE conjugated) and incubated for 1 hour at 4° C. Cells were washed twice, resuspended in a final volume of 175 μl FACS buffer and transferred to FACS tubes. Fluorescence was measured by flow cytometry and data plotted as normalized % positive events (gated in R2).
# T1 sequence (P06756 31-1048, chain 1 of 2): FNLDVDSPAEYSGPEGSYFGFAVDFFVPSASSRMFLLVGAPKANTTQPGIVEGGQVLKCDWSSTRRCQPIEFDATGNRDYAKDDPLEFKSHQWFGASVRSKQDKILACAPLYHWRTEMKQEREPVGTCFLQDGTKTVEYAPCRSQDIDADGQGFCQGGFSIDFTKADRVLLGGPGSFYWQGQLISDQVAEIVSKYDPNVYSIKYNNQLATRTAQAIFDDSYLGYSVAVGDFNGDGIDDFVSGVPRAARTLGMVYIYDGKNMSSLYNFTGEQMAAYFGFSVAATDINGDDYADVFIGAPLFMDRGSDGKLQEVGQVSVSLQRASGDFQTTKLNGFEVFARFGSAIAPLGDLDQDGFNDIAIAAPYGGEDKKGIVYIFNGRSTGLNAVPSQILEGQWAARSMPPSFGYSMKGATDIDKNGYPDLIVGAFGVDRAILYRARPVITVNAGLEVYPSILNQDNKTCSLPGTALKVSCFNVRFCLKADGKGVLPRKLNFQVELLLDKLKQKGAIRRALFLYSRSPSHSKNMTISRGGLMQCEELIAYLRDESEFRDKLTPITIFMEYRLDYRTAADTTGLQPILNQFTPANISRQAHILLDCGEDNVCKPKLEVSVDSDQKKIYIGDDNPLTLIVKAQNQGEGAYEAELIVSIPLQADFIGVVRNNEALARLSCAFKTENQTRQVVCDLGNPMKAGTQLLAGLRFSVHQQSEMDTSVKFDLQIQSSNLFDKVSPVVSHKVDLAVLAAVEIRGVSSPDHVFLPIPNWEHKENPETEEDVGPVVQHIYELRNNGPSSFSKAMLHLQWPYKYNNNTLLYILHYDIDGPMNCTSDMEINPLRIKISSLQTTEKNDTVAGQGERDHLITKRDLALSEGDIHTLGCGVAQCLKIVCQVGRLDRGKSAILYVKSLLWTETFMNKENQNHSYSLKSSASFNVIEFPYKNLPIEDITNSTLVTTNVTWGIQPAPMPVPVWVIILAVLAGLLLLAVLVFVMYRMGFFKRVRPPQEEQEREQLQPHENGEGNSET
# T1 sequence (P05106 27-788, chain 2 of 2): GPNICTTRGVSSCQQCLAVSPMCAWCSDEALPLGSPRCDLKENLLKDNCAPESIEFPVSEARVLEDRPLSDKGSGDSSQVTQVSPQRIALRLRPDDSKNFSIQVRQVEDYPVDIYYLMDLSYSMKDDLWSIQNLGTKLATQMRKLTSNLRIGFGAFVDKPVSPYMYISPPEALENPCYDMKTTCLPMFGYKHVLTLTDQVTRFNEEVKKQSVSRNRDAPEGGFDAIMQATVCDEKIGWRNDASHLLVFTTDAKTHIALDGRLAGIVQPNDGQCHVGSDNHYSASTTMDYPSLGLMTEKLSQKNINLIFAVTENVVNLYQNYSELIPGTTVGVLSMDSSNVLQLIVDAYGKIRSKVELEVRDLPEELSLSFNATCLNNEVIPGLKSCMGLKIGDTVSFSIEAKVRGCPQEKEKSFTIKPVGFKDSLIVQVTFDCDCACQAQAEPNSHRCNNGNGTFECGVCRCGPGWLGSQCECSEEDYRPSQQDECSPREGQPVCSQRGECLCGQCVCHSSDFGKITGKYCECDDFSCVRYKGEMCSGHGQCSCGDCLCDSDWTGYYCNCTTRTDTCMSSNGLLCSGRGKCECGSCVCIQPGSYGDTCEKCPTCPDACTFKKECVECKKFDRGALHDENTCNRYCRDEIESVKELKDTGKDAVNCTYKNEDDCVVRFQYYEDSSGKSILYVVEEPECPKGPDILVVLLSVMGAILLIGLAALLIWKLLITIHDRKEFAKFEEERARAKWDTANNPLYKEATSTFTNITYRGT
row,EC50 [nM],Binder
1,47.4,B1
2,4.92,B2
3,3.13,B3
4,4.08,B4
5,2.03,B5
6,4.55,B6
7,3.15,B7
8,3.7,B8
9,4.42,B9
10,5.43,B10
11,3.12,B11
12,4.85,B12

# Target: T1, alphaVbeta3 integrin, native human, on …
# Test: flow cytometry on RD cells expressing alphaVbeta3; reference chimeric HLMC
# Procedure: as §1, §2
row,relative binding score (EC50 of variant divided by EC50 of chimeric HLMC) [ratio],Binder
1,13.2,B1
2,1.37,B2
3,0.87,B3
4,1.14,B4
5,0.57,B5
6,1.27,B6
7,0.88,B7
8,1.03,B8
9,1.23,B9
10,1.52,B10
11,0.87,B11
12,1.35,B12
